In the experiment the target is recombinant TpiA (triosephosphate isomerase of Streptococcus pneumoniae D39) (S. pneumoniae D39) (UniProt P66943). Put plainly: SPR; Biacore X100; rTpiA amine-coupled on a CM5 chip; plasminogen, laminin and BSA injected at 3.125 to 50 nM, contact time 120 s, 20 µL/min; 100 mM HEPES pH 7.4, 150 mM NaCl, 3 mM EDTA, 0.005% surfactant P20; apparent constants. (In general: SPR reads the build-up and loss of mass on a sensor chip optically.)

pKd: −log10 of the molar value.

Consider one substance from publication PMC9157410.

What is called pKd is the negative decadic logarithm of the Kd, by convention in mol/L. One may read the koff as a measure of how fast the partners let go of each other. As usually defined, the kon is a measure of how fast the partners come together.

Sequence of UniProt P66943 (P66943 2-252): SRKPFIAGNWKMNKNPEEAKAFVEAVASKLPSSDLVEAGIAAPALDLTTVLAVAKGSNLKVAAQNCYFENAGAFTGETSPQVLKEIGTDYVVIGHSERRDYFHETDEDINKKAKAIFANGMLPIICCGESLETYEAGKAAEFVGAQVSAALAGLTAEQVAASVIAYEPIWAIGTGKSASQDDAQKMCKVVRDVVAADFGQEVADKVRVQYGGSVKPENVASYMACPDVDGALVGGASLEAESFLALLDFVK

As to “plasminogen from human plasma (natural protein)”, the pKd is 6.39, the koff was 0.00553 s⁻¹ and the kon is 13400 M⁻¹ s⁻¹.
